Reference: IntAct's records for PubMed 9881977

B1: Early protein (Human adenovirus C serotype 5 (HAdV-5)), P03255-2 (parent)
chain: MRHIICHGGVITEEMAASLLDQLIEEVLADNLPPPSHFEPPTLHELYDLDVTAPEDPNEEAVSQIFPDSVMLAVQEGIDLLTFPPAPGSPEPPHLSRQPEQPEQRALGPVSMPNLVPEVIDLTCHEAGFPPSDDEDEEGPVSEPEPEPEPEPEPARPTRRPKMAPAILRRPTSPVSRECNSSTDSCDSGPSNTPPEIHPVVPLCPIKPVAVRVGGRRQAVECIEDLLNEPGQPLDLSCKRPRP
partner: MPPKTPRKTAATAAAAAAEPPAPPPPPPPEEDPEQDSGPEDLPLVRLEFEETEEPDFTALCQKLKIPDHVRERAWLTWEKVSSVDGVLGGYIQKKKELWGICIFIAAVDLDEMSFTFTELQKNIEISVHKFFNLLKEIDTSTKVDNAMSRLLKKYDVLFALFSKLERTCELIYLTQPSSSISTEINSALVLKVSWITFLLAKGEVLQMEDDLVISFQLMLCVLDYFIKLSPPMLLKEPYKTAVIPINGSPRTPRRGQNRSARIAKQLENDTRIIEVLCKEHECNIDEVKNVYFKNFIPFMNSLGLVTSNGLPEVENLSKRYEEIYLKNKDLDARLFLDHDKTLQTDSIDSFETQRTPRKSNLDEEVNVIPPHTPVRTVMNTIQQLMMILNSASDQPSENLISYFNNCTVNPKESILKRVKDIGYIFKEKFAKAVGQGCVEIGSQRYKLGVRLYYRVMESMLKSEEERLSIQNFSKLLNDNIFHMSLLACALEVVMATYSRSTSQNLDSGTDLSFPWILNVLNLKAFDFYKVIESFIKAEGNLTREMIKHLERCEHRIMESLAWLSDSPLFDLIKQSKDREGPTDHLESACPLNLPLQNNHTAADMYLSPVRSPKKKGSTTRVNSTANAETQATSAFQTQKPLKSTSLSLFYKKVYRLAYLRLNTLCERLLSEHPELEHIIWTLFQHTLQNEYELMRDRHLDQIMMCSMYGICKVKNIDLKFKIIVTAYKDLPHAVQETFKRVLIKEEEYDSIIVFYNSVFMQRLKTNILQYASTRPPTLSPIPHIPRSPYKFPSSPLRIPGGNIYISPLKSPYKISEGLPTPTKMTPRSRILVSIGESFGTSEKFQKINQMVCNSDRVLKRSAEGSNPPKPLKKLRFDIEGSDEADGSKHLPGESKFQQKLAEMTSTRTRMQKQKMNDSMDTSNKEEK
B2: Early protein (Human adenovirus C serotype 5 (HAdV-5)), P03255-2 (parent)
chain: B1 chain

Variants of: B1
Conditions: with rb_human RB1, P06400

Variant	effect of a mutation on the interaction
R2G	decreasing interaction

Variants of: B2
Conditions: with ep300_human EP300, Q09472
Chain of ep300_human EP300, Q09472 (Q09472 whole entry): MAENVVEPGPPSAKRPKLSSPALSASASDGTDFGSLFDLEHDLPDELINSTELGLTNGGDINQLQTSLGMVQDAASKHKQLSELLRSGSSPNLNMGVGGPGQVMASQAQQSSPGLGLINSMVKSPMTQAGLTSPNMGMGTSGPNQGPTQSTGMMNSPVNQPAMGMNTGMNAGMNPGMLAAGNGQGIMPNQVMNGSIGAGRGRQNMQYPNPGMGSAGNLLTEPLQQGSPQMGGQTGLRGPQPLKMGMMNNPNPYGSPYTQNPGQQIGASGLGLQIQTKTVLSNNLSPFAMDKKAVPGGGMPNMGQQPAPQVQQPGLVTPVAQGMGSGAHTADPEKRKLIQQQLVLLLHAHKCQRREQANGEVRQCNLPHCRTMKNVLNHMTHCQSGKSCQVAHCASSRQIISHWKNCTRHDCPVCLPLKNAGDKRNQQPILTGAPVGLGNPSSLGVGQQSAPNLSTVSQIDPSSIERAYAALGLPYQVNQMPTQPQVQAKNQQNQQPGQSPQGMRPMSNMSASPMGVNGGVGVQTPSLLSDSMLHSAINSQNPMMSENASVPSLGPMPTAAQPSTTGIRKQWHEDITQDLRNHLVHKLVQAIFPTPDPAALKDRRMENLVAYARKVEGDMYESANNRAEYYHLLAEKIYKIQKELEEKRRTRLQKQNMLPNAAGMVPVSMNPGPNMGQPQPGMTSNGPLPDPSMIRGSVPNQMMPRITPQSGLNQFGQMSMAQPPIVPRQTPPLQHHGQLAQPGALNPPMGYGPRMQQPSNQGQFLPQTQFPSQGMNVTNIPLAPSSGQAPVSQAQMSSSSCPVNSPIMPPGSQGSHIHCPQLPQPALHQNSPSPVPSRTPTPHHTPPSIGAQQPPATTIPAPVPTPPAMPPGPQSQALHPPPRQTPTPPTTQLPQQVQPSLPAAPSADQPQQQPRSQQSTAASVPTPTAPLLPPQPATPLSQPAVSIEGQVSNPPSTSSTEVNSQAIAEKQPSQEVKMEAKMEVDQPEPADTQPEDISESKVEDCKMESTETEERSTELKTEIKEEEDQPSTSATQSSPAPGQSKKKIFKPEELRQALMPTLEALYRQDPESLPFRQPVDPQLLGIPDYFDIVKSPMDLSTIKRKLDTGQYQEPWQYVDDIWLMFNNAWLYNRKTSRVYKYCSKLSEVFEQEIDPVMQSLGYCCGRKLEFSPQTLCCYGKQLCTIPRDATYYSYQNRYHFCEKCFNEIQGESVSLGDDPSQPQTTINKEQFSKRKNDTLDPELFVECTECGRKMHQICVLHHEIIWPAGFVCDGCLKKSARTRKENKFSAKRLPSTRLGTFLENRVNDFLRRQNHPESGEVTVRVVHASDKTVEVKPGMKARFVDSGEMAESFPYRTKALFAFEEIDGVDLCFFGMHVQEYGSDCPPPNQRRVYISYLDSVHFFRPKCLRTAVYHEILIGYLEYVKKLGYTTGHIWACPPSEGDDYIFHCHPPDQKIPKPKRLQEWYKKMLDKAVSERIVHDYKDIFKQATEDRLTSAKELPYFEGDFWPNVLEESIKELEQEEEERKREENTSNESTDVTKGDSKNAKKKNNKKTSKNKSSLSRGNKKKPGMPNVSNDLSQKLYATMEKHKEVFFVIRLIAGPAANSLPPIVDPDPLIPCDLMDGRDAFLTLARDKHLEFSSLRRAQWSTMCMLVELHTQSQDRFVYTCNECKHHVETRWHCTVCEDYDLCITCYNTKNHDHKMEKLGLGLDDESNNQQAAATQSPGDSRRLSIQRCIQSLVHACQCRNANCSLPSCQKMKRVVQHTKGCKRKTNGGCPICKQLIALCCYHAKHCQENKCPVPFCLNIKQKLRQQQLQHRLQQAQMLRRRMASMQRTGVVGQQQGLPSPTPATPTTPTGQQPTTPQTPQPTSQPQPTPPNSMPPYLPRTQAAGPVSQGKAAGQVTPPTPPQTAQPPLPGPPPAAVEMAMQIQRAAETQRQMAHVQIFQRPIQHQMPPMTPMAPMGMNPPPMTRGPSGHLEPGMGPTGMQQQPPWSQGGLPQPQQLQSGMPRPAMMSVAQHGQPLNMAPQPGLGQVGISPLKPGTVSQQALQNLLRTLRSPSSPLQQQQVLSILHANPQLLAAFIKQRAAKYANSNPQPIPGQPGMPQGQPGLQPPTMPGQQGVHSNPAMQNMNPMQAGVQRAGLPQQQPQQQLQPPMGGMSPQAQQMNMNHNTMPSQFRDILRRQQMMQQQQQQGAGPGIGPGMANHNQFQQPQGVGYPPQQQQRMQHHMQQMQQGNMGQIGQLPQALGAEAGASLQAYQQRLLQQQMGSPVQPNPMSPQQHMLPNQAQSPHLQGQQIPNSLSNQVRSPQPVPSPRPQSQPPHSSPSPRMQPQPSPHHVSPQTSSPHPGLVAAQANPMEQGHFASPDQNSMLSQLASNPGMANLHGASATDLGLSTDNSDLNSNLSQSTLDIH

Variant	effect of a mutation on the interaction
R2G	disrupting interaction

Variants of: B2
Conditions: with stat1_human STAT1, P42224
Chain of stat1_human STAT1, P42224 (P42224 whole entry): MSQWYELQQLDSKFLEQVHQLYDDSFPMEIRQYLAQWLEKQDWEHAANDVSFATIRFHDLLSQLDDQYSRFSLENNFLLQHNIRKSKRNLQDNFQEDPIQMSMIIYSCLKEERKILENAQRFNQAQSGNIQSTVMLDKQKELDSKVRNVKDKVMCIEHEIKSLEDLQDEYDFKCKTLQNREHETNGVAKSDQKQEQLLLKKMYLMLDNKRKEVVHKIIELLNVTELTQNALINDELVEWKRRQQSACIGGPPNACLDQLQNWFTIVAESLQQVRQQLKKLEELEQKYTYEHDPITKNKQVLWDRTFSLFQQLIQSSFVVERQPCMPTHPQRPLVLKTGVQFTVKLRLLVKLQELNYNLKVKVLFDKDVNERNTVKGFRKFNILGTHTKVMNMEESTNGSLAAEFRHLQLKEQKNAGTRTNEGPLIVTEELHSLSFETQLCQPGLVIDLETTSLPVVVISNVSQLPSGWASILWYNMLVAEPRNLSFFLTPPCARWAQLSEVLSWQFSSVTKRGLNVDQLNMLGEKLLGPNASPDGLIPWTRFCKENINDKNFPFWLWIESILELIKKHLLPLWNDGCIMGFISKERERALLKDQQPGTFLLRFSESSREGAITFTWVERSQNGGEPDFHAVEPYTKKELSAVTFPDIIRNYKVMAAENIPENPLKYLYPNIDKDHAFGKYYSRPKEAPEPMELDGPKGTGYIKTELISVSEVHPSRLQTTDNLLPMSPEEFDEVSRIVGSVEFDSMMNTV

Variant	effect of a mutation on the interaction
R2G	decreasing interaction
